In patent US11046945B2, “Labeled glutaminase proteins, isolated glutaminase protein mutants, methods of use, and kit” (CORNELL UNIVERSITY, priority 2013, dated 2021):
Where a chain is given by its changes, count along the chain named. In names and notes the source's numbering stands.

T1: GAC (Mus musculus, UniProt D3Z7P3)
T1 construct: plasmid (residues 72-603 for GAC, 72-674 for KGA); His-tag with thrombin cleavage site (N, cleaved yes); made in house; host or cells: pET23a vector
T1 sequence (D3Z7P3 72-603 isoform D3Z7P3-2): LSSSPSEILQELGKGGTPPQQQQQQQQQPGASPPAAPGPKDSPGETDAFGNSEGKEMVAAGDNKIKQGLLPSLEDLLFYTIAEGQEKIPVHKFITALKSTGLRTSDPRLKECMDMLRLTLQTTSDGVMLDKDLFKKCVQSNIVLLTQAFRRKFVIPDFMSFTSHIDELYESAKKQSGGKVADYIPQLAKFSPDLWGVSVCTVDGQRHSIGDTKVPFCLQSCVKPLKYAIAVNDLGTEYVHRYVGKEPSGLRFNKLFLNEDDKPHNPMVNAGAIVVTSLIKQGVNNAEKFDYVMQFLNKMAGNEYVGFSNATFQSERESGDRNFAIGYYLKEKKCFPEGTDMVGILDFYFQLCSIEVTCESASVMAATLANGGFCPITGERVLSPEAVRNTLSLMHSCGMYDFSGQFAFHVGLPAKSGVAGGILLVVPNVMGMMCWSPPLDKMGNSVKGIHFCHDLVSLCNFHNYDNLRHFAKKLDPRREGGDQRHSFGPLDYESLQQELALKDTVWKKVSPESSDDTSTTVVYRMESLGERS

B1: QSY® 9-GAC (WT): wild type recombinant mouse GAC labeled with the non-fluorescent acceptor QSY 9 succinimidyl ester (protein)
chain: T1 sequence (D3Z7P3 72-603 isoform D3Z7P3-2)
B2: QSY® 9-GAC (D391K): QSY 9-labeled constitutive GAC dimer mutant D391K (protein)
chain: T1 sequence (D3Z7P3 72-603 isoform D3Z7P3-2) with D320K
B3: QSY® 9-GAC (K316E, D391K, R459E): QSY 9-labeled monomer GAC mutant K316E/D391K/R459E (protein)
chain: T1 sequence (D3Z7P3 72-603 isoform D3Z7P3-2) with K245E, D320K, R388E

Target: T1, GAC
Test: FRET assay of GAC tetramer formation (488-GAC donor, QSY 9-GAC acceptor)
Type: binding
Conditions: 200 nM QSY 9-labeled protein added to 20 nM 488-WT-GAC
From the text: A mouse kidney type glutaminase isoform 1 (KGA, NP_001074550.1, which is hereby incorporated by reference in its entirety (SEQ ID NO:7)) and isoform 2 (GAC, NP_001106854.1, which is hereby incorporated by reference in its entirety (SEQ ID NO:3)) plasmid (residues 72-603 for GAC, 72-674 for KGA) was cloned into a pET23a vector containing an N-terminal histidine (His)-tag and thrombin cleavage site. The expressed protein was initially purified using Co^2+ affinity beads (Clontech), after which the His-tag was cleaved with human thrombin (Haemetologic Technologies) overnight at 4° C. and subsequently purified by anion exchange (GE healthcare) and gel filtration chromatography. Purified GAC or KGA was stored in a high salt containing buffer (20 mM Tris-HCl pH 8.5, 500 mM NaCl, 1 mM NaN3) and stored at −80° C. following snap freezing in liquid N2 for long term use. For labeling recombinant GAC or KGA with small molecule probes, 1.5 mg of enzyme was exchanged to 50 mM HEPES pH 7.2, 100 mM NaCl using a PD10 desalting column (GE healthcare) and incubated with 50 μM (5-fold excess of enzyme) of either ALEXA FLUOR® 488 succinimidyl ester or QSY® 9 succinimidyl ester (Molecular Probes) for 1 hr at 4° C. After 1 hr, the labeling reaction was quenched with 150 mM Tris-HCl pH 8.5 and unreacted probe was separated from labeled-enzyme using a PD10 desalting column eluting labeled-GAC back into the high salt containing buffer.
Fluorescence experiments were performed using a Varian Carry Eclipse Fluorometer in the counting mode. Excitation and emission wavelengths were 490 and 520 nm, respectively. Experiments were all prepared as one-mL samples and stirred continuously at 20° C. in 50 mM Tris-Acetate pH 8.5, 0.1 mM ethylenediaminetetraacetic acid (EDTA). For WT GAC titrations in the absence of inorganic phosphate, 10 nM 488-GAC was equilibrated followed by injection of 25 μL of the appropriate concentration of QSY® 9-GAC and was allowed to equilibrate for 10 minutes at which point 75 μL of the appropriate concentration of unlabeled WT GAC was added to give a concentration that was ten-times that of labeled-GAC (i.e., 10-fold excess). For FRET experiments prepared for inorganic phosphate titrations, a similar protocol was followed whereby 10 nM of 488-GAC was equilibrated with 400 nM QSY® 9-GAC followed by injection of 100 μL of the appropriate concentration of K2HPO4 prepared in 50 mM Tris-Acetate (pH=8.5) 0.1 mM EDTA buffer. To test whether purified mutants can form oligomers with WT GAC, 200 nM QSY® 9-D391K-GAC or 200 nM QSY® 9-K316E-D391K-R459E was added to an equilibrated sample of 20 nM 488-WT GAC. Likewise, when assaying the effects of BPTES and 968 on oligomer formation, BPTES or 968 (10 μM or 25 μM, respectively) was added following equilibration of a sample of 200 nM of QSY® 9-WT GAC and 20 nM 488-WT GAC. Both BPTES and 968 were prepared in DMSO, and appropriate dilutions were made so that less than 2% (v/v) DMSO was added to an experimental sample.

| Molecule | EFRET max / energy transfer on addition to 488-GAC (WT) |
| --- | --- |
| B1 | approximately 0.3 |
| B2 | only a minor extent of FRET |
| B3 | no observable energy transfer |
